Measurements taken from patent US8084213, “Selection” (Domantis Limited).

Experiments:
[1] = molecular target: scFv(31IJ1)-(KEAAA)6-scArc-HA (Phage P22 / human scFv?); assay: recovery improves with operator number; details: tags: N-terminal scFv fusion, C-terminal HA; chain copies: 2 scArc per operator (inferred)
Method: In the solution expression experiments 3 µl of 1.7 nM PCR-amplified pIE7aA, pIE7a2A, pIE7a3A, pIE7a4A, pIE7aA-scFv(31IJ1), pIE7a2A-scFv(31 Ul), pIE7a3A-scFv (31IJ1) or pIE7a4A-scFv(31IJ1) template in 0.2 mg/ml tRNA is added to 25 µl EcoPro T7 in vitro translation mix (Novagen), supplemented with 0.75 µl of 100 mM oxidized glutathione (Sigma) and 0.25 µl […] 3F10 αHA mAb (Roche). Each reactions is split into three 9 µl aliquots. Two of the three in vitro translation aliquots of pIE7aA-scFv(31IJ1), pIE7a2A-scFv(31IJ1), pIE7a3A-scFv(31IJ1) or pIE-7a4A-scFv(31IJ1) are immediately combined with the aliquots of pIE7aA, pIE7a2A, pIE7a3A or pIE7a4A expression reactions respectively, one before and the other after the four-hour incubation at 25° C.
During the translation reaction the streptavidin-coated PCR tubes, cut from Strep Thermofast 96-well plates (Abgene), are first incubated at room temperature for three hours with 50 µl of at least 40 nM biotinylated protein A (Sigma), protein L (Pierce) fluorescein (Molecular Probes) of BSA (Sigma) in PBS. The coating buffer is thereafter removed and any remaining free biotin-binding sites are blocked with a 15 min pulse of 50 µg/ml biotinylated BSA in PBS. The pre-coated wells are thereafter three times washed with PBS and then filled with 100 µl of binding buffer C+ (100 mM KCl, 20 mM Tris, 5 mM MgCl2, 0.05% Tween 20, 0.05 mM EDTA, 1% BSA).
Upon completion of the translation reaction the products are diluted in Buffer C+ and applied to the pre-coated and blocked PCR tubes, allowed to bind for 30 min at room temperature and washed 4 times with 150 µl of Buffer C+. The retained genetic elements are amplified with PCR using a nested set of primers AS79/AS80 and a 30-cycle PCR protocol 30X60C2M. In 30X60C2M protocol 50 µl PCR reactions contain 200 µM each of dATP dTTP dGTP dCTP (Amersham), 300 nM forward and reverse primers AS13+ AS19 and 1 U of SuperTaq DNA polymerase (HT Biotechnology) in 1× polymerase Buffer (HT Biotechnology). […]

scArc-Vk(E5)-HA [2] = molecular target: T1, scArc-Vk(E5)-HA (Phage P22 / human Vk); assay: stable linkage even without anti-HA mAb; details: tags: C-terminal Vk(E5) dAb fusion, chain copies: 2 scArc per operator (stated)
Vk(E5)-scArc-HA [3] = molecular target: T2, Vk(E5)-scArc-HA (Phage P22 / human Vk); assay: recovery increases with operator number; complex stabilised by 3.4 nM anti-HA mAb 3F10; details: tags: N-terminal Vk(E5) dAb fusion, C-terminal HA; chain copies: 2 scArc per operator (stated)
scArc-Vk(E5)-HA [4] = molecular target: T1, scArc-Vk(E5)-HA; assay: plateau at 3-4 operators; details: tags: C-terminal Vk(E5) dAb fusion, chain copies: 2 scArc per operator (stated)
Method: (§1) Tubes from Strep Thermofast 96-well plates are coated by applying 2 µl of 0.05 mg/ml biotinylated rat anti-HA mAb (clone 3F10, Roche), 0.2 µl of 0.5 mg/ml biotinylated protein L (Pierce), 1 µl of biotinylated 1 mg/ml β-galactosidase or 0.1 µl of 5 mg/ml biotinylated BSA (Sigma) respectively in 50 µl aliquots of PBS and incubating for 3 hours at room temperature. The monoclonal high-affinity α-HA mAb 3F10 recognises the C-terminal HA tag, β-galactosidase and protein L can be expected to interact with the $V_\kappa$(E5) light chain domain, while BSA serves as the negative control. At the end of the incubation the coating solution is removed and the first blocking solution consisting of 150 µl of 10 ng/ml biotinylated BSA (Sigma) in PBS is added to the wells and incubated for 15 minutes. At the end of the incubation the wells are washed three times with 150 µl of PBS and blocked additionally for 30 min at room temperature with buffer C+.
(§2) 25 µl S30 in vitro translation reactions (EcoPro T7, Novagen) are assembled according to the manufacturer's instructions and supplemented with 1.5 µl of 1.7 mM PCR-amplified template in 0.1 mg/ml RNA and 0.75 µl of 100 mM oxidized glutathione. […]
(§3) The PCR amplification products are analysed by 1% agarose gel electrophoresis in TAE in the presence of ethidium bromide and imaged using GeneGeius Bio Imaging System (Syngene). […]

Vk(E5)-scArc-HA [5] = molecular target: T2, Vk(E5)-scArc-HA; assay: recovery reaches plateau at 3-4 operators; details: tags: N-terminal Vk(E5) dAb fusion, C-terminal HA; chain copies: 2 scArc per operator (stated)
Method: as §1, §2, §3

| Binder | binding result [1] | binding result (scArc-Vk(E5)-HA [2]) | binding result (Vk(E5)-scArc-HA [3]) | binding result (scArc-Vk(E5)-HA [4]) | binding result (Vk(E5)-scArc-HA [5]) |
| --- | --- | --- | --- | --- | --- |
| genetic element with two Arc operators (dsDNA) DNA 1: GATCTATGATAGAAGCACTCTACTATACTCATCACGAAACGGAGGATCTATGATAGAAGCACTCTACTAT DNA 2: ATAGTAGAGTGCTTCTATCATAGATCCTCCGTTTCGTGATGAGTATAGTAGAGTGCTTCTATCATAGATC | binds | binds | binds |  |  |
| genetic element with three Arc operators (dsDNA) DNA 1: GATCTATGATAGAAGCACTCTACTATACTCATCACGAAACGGAGGATCTATGATAGAAGCACTCTACTATACTCATCACGAAACGGAGGATCTATGATAGAAGCACTCTACTAT DNA 2: ATAGTAGAGTGCTTCTATCATAGATCCTCCGTTTCGTGATGAGTATAGTAGAGTGCTTCTATCATAGATCCTCCGTTTCGTGATGAGTATAGTAGAGTGCTTCTATCATAGATC | binds |  |  | binds | binds |
| genetic element with four Arc operators (dsDNA) DNA 1: GATCTATGATAGAAGCACTCTACTATACTCATCACGAAACGGAGGATCTATGATAGAAGCACTCTACTATACTCATCACGAAACGGAGGATCTATGATAGAAGCACTCTACTATACTCATCACGAAACGGAGGATCTATGATAGAAGCACTCTACTAT DNA 2: ATAGTAGAGTGCTTCTATCATAGATCCTCCGTTTCGTGATGAGTATAGTAGAGTGCTTCTATCATAGATCCTCCGTTTCGTGATGAGTATAGTAGAGTGCTTCTATCATAGATCCTCCGTTTCGTGATGAGTATAGTAGAGTGCTTCTATCATAGATC | binds |  |  |  |  |
